Reference: patent US20230242654A1, “REAGENTS FOR EXPANDING CELLS EXPRESSING RECOMBINANT RECEPTORS” (Juno Therapeutics, Inc., priority 2017, published 2023)

Legend:
Format in all cases: cell-based, human
[1] = test system: T cells transduced with anti-CD19 CAR having an scFv derived from FMC63; assay: Stimulation of T cells cultured with anti-idiotype antibody-conjugated beads up to 14 days
Procedure: The FMC63-derived scFv-specific anti-ID B-1-conjugated beads were incubated with T cells. CD3-purified T cells were isolated by immunoaffinity-based enrichment from leukapheresis samples from healthy donors. Isolated cells were transduced with a viral vector encoding an anti-CD19 CAR having an scFv derived from FMC63. The viral vector construct further encoded a truncated EGFR (EGFRt), which served as a surrogate marker for CAR expression; the EGFRt-coding region was separated from the CAR sequence by a T2A skip sequence. After transductions, cells were expanded in culture and frozen by cryopreservation.
For T cells stimulation studies, thawed CD4+ or CD8+ CAR-expressing cells were separately seeded at approximately 50,000 total cells per well. In some cases, the culture media was additionally supplemented with cytokines as follows: for CD4+ cells, approximately 1200 IU/mL recombinant IL-7, 20 IU/mL recombinant IL-15 and 100 IU/mL recombinant IL-2; for CD8+ cells, approximately 200 IU/mL recombinant IL-2 and 20 IU/mL recombinant IL-15. Anti-ID B-1 conjugated beads were added to cells at a 1:1 or 1:5 cell:bead ratio and incubated up to 14 days with a 50% media exchange every 2-3 days. As a positive control, cells were cultured with anti-CD3/anti-CD28 magnetic beads at a 3:1 cell:bead ratio in the presence or absence of the indicated cytokines.
At various times of culture, CD4+ or CD8+ transduced cells (as detected by anti-EGFR for expression of the surrogate marker) were assessed for expansion, PD-1 expression and viability.

[2] = test system: T cells transduced with anti-CD19 CAR having an scFv derived from FMC63; assay: Cytokine levels and phenotype at thaw versus after 9 days with anti-ID B-1 conjugated beads; conditions: 9 days with beads versus immediately after thaw
Source text: CD3-purified T cells were isolated from peripheral blood mononuclear cells (PBMCs) of two donor patients, transduced with a viral vector encoding an anti-CD19 CAR having an scFv derived from FMC63 and expanded in culture with anti-CD3 and anti-CD28 antibody coated beads. After expansion, the expanded T cells were frozen by cryopreservation. For the studies, frozen T cells were thawed and CD4+ and CD8+ T cells assessed for intracellular cytokine levels or surface phenotype (d=0) or thawed CD4+, CD8+, or CD4+/CD8+ co-culture T cells were cultured for an additional 9 days in the presence of anti-ID B-1 conjugated beads prior to assessing intracellular cytokine levels and surface marker phenotype following stimulation by PMA/ionomycin or CD19 transduced K562 cells (d=9).
For assessment of intracellular cytokine levels, Golgi inhibitor was added for 4 hours and then TNFα, IFNγ, and IL-2 was assessed by flow cytometry. For all conditions, the extent of intracellular cytokine expression was substantially greater when cells were stimulated in with PMA/ionomycin as compared to CAR-specific stimulation with CD19 transduced K562 cells. […] Similar results were obtained in cells from the two donors.
Surface expression of the activation marker CD25, surface expression of inhibitory receptors PD-1 and LAG-3, and nuclear expression of the proliferation marker Ki-67 were also assessed in CD4+ or CD8+ cells immediately after thaw (d=0) or in CD4+ or CD8+ T cells expanded alone or as a CD4/CD8 co-culture for an additional 9 days in the presence of the anti-ID conjugated beads (d=9).

[3] = test system: anti-CD19 CAR-T cell compositions; assay: Long-term (15 day) stimulation with anti-ID conjugated beads of CAR-T compositions made with compounds; conditions: 1:1 bead:cell, 15 days, counted every 5 days
Procedure: Engineered T cell compositions containing T cells that express an anti-CD19 CAR were generated from three separate donors in the presence of different compounds or a vehicle control.
The ability of the cells from the different T cell compositions to expand following stimulation of the CAR was assessed by incubating cells of the generated anti-CD19 CAR-T cell compositions with beads surface conjugated with an anti-idiotype antibody specific to the anti-CD19 CAR. The anti-ID conjugated beads were incubated with cells at a 1:1 bead:cell ratio in wells of 24-well G-rex expansion vessels (Argos Technologies) for 15 days. The total live T cells per well was determined by counting cells in the cultures every 5 days (FIG. 25A). The mean area under the curve (AUC) of the function of T cell number over time was calculated relative to the AUC of cells expanded with media only (FIG. 25B).
Secondary cytokine response after stimulation with antigen-expressing cells was assessed on CAR-T cells from the T cell compositions harvested at day 11 following expansion with anti-ID conjugated beads. The anti-ID stimulated cells were incubated with irradiated K562-CD19 target cells at an effector:target ratio of 1:1 for approximately 16 hours. Supernatant was collected and TNF-alpha, IFN-gamma, and IL-2 cytokine production were measured using a Luminex Multiplex Assay. […]

B1: anti-ID conjugated beads: FMC63-derived scFv-specific anti-idiotype antibody (B-1 in Examples 10-14) covalently coupled to tosyl-activated magnetic beads (conjugate)
heavy: EVQLQQSGPELVKPGASVKMSCKASGYTFTDYYMKWVKQCHGKSLEWIGDINPNNGGTDYNQNFKGKATLTVDKSSSTAYMQLNSLTSEDSAVYYCAREGNNYGSRDAMDYWGQGTSVTVSSAKTTAPSVYPLAPVCGDTTGSSVTLGCLVKGYFPEPVTLTWNSGSLSSGVHTFPAVLQSDLYTLSSSVTVTSSTWPSQSITCNVAHPASSTKVDKKIEPRGPTIKPCPPCKCPAPNLLGGPSVFIFPPKIKDVLMISLSPIVTCVVVDVSEDDPDVQISWFVNNVEVHTAQTQTHREDYNSTLRVVSALPIQHQDWMSGKEFKCKVNNKDLPAPIERTISKPKGSVRAPQVYVLPPPEEEMTKKQVTLTCMVTDFMPEDIYVEWTNNGKTELNYKNTEPVLDSDGSYFMYSKLRVEKKNWVERNSYSCSVVHEGLHNHHTTKSFSRTPGK
light: QIVLTQSPALMSASPGEKVTMTCSASSGVIYMYWYQQKPRSSPKPWIYLTSNLASGVPARFSGSGSGTSYSLTISSMEAEDAATYYCQQWSSNPLTFGAGTKLELKRADAAPTVSIFPPSSEQLTSGGASVVCFLNNFYPKDINVKWKIDGSERQNGVLNSWTDQDSKDSTYSMSSTLTLTKDEYERHNSYTCEATHKTSTSPIVKSFNRNEC
What does the source list for B1?
extent of expansion of CD4+ and CD8+ T cells ([1]; 1:1 or 1:5 cell:bead, versus control anti-CD3/anti-CD28 magnetic beads): The extent of expansion was greater; percent viability of CD4+ and CD8+ T cells ([1]; cultured in the presence of cytokines): remained consistently high; surface expression of PD-1 on the CD4+ cell subset ([1]; days 3, 7, 10 and 14): substantially lower or undetectable; expression of CD25 and Ki-67 [2]: reduced expression of CD25, but not Ki-67; expression of PD-1 and LAG-3 [2]: decreased expression of PD-1 and LAG-3; levels of IFNγ [2]: Increased levels of IFNγ; total live T cells per well [3]: initial expansion that was followed by a decline in cell number
